Source: patent US20060204957A1 (published 2006)

B2: MTA1s-stop (other)
chain: MAANMYRVGDYVYFENSSSNPYLIRRIEELNKTANGNVEAKVVCFYRRRDISSTLIALADKHATLSVCYKAGPGADNGEEGEIEEEMENPEMVDLPEKLKHQLRHRELFLSRQLESLPATHIRGKCSVTLLNETESLKSYLEREDFFFYSLVYDPQQKTLLADKGEIRVGNRYQADITDLLKEGEEDGRDQSRLETQVWEAHNPLTDKQIDQFLVVARSVGTFARALDCSSSVRQPSLHMSAAAASRDITLFHAMDTLHKNIYDISKAISALVPQGGPVLCRDEMEEWSASEANLFEEALEKYGKDFTDIQQDFLPWKSLTSIIEYYYMWKTTDRYVQQKRLKAAEAESKLKQVYIPNYNKPNPNQISVNNVKAGVVNGTGAPGQSPGAGRACESCY
B4: MTA1s-del (other)
chain: MAANMYRVGDYVYFENSSSNPYLIRRIEELNKTANGNVEAKVVCFYRRRDISSTLIALADKHATLSVCYKAGPGADNGEEGEIEEEMENPEMVDLPEKLKHQLRHRELFLSRQLESLPATHIRGKCSVTLLNETESLKSYLEREDFFFYSLVYDPQQKTLLADKGEIRVGNRYQADITDLLKEGEEDGRDQSRLETQVWEAHNPLTDKQIDQFLVVARSVGTFARALDCSSSVRQPSLHMSAAAASRDITLFHAMDTLHKNIYDISKAISALVPQGGPVLCRDEMEEWSASEANLFEEALEKYGKDFTDIQQDFLPWKSLTSIIEYYYMWKTTDRYVQQKRLKAAEAESKLKQVYIPNYNKPNPNQISVNNVKAGVVNGTGAPGQSPGAGRACESCYMSSDILEEIWWLENANPVRWREARTKPQ
B6: MTA1s (other)
chain: MAANMYRVGDYVYFENSSSNPYLIRRIEELNKTANGNVEAKVVCFYRRRDISSTLIALADKHATLSVCYKAGPGADNGEEGEIEEEMENPEMVDLPEKLKHQLRHRELFLSRQLESLPATHIRGKCSVTLLNETESLKSYLEREDFFFYSLVYDPQQKTLLADKGEIRVGNRYQADITDLLKEGEEDGRDQSRLETQVWEAHNPLTDKQIDQFLVVARSVGTFARALDCSSSVRQPSLHMSAAAASRDITLFHAMDTLHKNIYDISKAISALVPQGGPVLCRDEMEEWSASEANLFEEALEKYGKDFTDIQQDFLPWKSLTSIIEYYYMWKTTDRYVQQKRLKAAEAESKLKQVYIPNYNKPNPNQISVNNVKAGVVNGTGAPGQSPGAGRACESCYMSSLRILLDILEEIWWLENANPVRWREARTKPQ
notes: also called MTA1s (short); S2 clone

Key:
Estrogen Receptor α (ER) = target: T1, Estrogen Receptor α (ER) (UniProt P03372 1-595); assay: immunoprecipitation with T7-mAb, immunoblot for ERα (FIG. 4D)
T1 construct: Endogenous intracellular receptor in breast cancer cell lysates, and ER where no construct is named; also called ERα; endogenous ER
T1 sequence (looked up): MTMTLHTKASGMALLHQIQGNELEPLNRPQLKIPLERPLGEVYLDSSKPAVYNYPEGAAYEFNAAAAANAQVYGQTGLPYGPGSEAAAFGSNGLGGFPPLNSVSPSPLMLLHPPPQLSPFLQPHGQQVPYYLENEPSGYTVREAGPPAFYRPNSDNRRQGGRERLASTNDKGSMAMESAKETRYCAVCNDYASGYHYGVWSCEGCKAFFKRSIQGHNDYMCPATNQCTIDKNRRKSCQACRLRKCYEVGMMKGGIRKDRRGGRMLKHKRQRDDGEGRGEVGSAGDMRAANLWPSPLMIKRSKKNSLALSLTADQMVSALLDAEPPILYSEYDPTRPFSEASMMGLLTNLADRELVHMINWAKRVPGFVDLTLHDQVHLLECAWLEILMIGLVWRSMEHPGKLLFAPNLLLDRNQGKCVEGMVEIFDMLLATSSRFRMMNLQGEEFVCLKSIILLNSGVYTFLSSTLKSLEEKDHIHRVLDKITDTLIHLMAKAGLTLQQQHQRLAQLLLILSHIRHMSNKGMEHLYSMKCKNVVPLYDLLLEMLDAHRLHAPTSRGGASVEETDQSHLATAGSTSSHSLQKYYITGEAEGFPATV

GAD-ERα = target: T2, GAD-ERα (UniProt P03372 1-536); assay: yeast two-hybrid (FIG. 4B)
T2 construct: range 1-536; Yeast two-hybrid prey; also called GAD-ERα amino acids 1-536
T2 sequence (looked up): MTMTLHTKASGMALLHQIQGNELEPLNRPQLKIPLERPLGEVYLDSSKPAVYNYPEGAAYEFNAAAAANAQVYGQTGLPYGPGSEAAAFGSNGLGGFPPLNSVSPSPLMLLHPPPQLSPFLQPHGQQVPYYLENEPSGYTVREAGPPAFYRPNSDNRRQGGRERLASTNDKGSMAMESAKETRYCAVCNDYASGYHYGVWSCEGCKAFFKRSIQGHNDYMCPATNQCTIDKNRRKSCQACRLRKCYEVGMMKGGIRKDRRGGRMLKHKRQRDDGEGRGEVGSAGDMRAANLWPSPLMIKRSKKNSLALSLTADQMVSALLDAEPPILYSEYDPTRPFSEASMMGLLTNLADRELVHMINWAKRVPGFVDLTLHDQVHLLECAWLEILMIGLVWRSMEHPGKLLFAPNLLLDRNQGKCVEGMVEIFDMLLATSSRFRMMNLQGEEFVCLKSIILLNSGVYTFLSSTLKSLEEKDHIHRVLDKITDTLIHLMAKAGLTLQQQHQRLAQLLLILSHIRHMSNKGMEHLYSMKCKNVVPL

MTA1s = target: B6; assay: FIG. 14 legend
[1] = target: T3, Homologs to eukaryotic translation initiation factor 3, subunit 6 (48 kD) (UniProt P60228 1-445, limits assumed); assay: FIG. 14 legend
T3 construct: Two-hybrid isolate; also called Cone S 64-1

[2] = target: T4, bifunctional ATP sulfurylase/adenosine 5'-phosphosulfate (APS) kinase (UniProt O43252 1-624, limits assumed); assay: yeast two-hybrid screen for MTA1s-interacting proteins
T4 construct: Two-hybrid isolate
T4 sequence (looked up): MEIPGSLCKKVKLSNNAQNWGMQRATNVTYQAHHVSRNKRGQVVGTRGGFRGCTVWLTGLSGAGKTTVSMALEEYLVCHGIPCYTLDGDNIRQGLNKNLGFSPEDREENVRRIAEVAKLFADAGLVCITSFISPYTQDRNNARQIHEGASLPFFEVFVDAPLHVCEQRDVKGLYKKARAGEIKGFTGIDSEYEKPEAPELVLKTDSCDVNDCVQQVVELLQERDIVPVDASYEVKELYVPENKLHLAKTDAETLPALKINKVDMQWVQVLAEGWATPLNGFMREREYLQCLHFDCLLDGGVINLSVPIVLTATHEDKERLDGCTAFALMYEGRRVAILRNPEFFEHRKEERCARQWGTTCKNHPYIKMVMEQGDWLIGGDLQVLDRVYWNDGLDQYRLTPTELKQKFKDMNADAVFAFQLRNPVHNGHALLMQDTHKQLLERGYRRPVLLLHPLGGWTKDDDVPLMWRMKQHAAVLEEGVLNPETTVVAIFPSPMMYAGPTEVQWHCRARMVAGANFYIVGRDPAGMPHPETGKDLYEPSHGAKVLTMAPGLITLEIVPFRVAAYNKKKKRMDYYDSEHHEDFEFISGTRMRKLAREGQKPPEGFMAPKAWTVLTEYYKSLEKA

MTA1s-stop = target: B2; assay: GST pull-down (FIG. 4C)
MTA1s-del = target: B4; assay: GST pull-down (FIG. 4C)

T3 sequence (P60228 whole entry): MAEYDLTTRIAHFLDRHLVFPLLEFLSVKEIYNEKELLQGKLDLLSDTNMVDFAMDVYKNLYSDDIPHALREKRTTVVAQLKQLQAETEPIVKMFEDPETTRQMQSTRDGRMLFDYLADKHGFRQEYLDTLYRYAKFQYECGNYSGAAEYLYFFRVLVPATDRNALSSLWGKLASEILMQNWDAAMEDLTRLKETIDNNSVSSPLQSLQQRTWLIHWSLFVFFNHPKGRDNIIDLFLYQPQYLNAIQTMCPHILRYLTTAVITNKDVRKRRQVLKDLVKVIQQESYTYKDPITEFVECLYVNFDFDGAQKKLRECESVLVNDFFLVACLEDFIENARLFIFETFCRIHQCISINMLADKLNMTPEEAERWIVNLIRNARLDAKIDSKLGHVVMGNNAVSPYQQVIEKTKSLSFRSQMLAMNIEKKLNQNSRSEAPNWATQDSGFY

B1: T7-MTA1sstop (other, not shown: small tags and cut ends)
chain: MAANMYRVGDYVYFENSSSNPYLIRRIEELNKTANGNVEAKVVCFYRRRDISSTLIALADKHATLSVCYKAGPGADNGEEGEIEEEMENPEMVDLPEKLKHQLRHRELFLSRQLESLPATHIRGKCSVTLLNETESLKSYLEREDFFFYSLVYDPQQKTLLADKGEIRVGNRYQADITDLLKEGEEDGRDQSRLETQVWEAHNPLTDKQIDQFLVVARSVGTFARALDCSSSVRQPSLHMSAAAASRDITLFHAMDTLHKNIYDISKAISALVPQGGPVLCRDEMEEWSASEANLFEEALEKYGKDFTDIQQDFLPWKSLTSIIEYYYMWKTTDRYVQQKRLKAAEAESKLKQVYIPNYNKPNPNQISVNNVKAGVVNGTGAPGQSPGAGRACESCY
notes: Expressed in MCF-7 cells for immunoprecipitation with T7-mAb; also called T7-tagged MTA1s-stop
Does B1 bind (Estrogen Receptor α (ER))?
Result: no binding

Does B2 bind (GAD-ERα)?
Result: no binding

B3: T7-MTA1sdel (other, not shown: small tags and cut ends)
chain: MAANMYRVGDYVYFENSSSNPYLIRRIEELNKTANGNVEAKVVCFYRRRDISSTLIALADKHATLSVCYKAGPGADNGEEGEIEEEMENPEMVDLPEKLKHQLRHRELFLSRQLESLPATHIRGKCSVTLLNETESLKSYLEREDFFFYSLVYDPQQKTLLADKGEIRVGNRYQADITDLLKEGEEDGRDQSRLETQVWEAHNPLTDKQIDQFLVVARSVGTFARALDCSSSVRQPSLHMSAAAASRDITLFHAMDTLHKNIYDISKAISALVPQGGPVLCRDEMEEWSASEANLFEEALEKYGKDFTDIQQDFLPWKSLTSIIEYYYMWKTTDRYVQQKRLKAAEAESKLKQVYIPNYNKPNPNQISVNNVKAGVVNGTGAPGQSPGAGRACESCYMSSDILEEIWWLENANPVRWREARTKPQ
notes: Expressed in MCF-7 cells for immunoprecipitation with T7-mAb; also called T7-tagged MTA1s-del
Does B3 bind (Estrogen Receptor α (ER))?
Result: no binding

Does B4 bind (GAD-ERα)?
Result: no binding

B5: Casein Kinase 1, γ2 (enzyme)
chain: not shown
notes: Two-hybrid isolate; also called clone S55-1
Does B5 bind (MTA1s)?
Result: binds

Does B6 bind [1]?
Result: binds

Does B6 bind [2]?
Result: binds

B7: GST-AF2 domain of the ER (receptor, UniProt P03372 282-595, looked up)
chain: SAGDMRAANLWPSPLMIKRSKKNSLALSLTADQMVSALLDAEPPILYSEYDPTRPFSEASMMGLLTNLADRELVHMINWAKRVPGFVDLTLHDQVHLLECAWLEILMIGLVWRSMEHPGKLLFAPNLLLDRNQGKCVEGMVEIFDMLLATSSRFRMMNLQGEEFVCLKSIILLNSGVYTFLSSTLKSLEEKDHIHRVLDKITDTLIHLMAKAGLTLQQQHQRLAQLLLILSHIRHMSNKGMEHLYSMKCKNVVPLYDLLLEMLDAHRLHAPTSRGGASVEETDQSHLATAGSTSSHSLQKYYITGEAEGFPATV
notes: domain: AF2 domain; Immobilized on glutathione-sepharose beads; also called AF2 domain of ERα; not shown: glutathione S-transferase
Does B7 bind (MTA1s-stop)?
Result: no binding

Does B7 bind (MTA1s-del)?
Result: no binding

B8: LMO4 (other, UniProt P61968 1-165, looked up)
chain: MVNPGSSSQPPPVTAGSLSWKRCAGCGGKIADRFLLYAMDSYWHSRCLKCSCCQAQLGDIGTSCYTKSGMILCRNDYIRLFGNSGACSACGQSIPASELVMRAQGNVYHLKCFTCSTCRNRLVPGDRFHYINGSLFCEHDRPTALINGHLNSLQSNPLLPDQKVC
notes: Two-hybrid isolate; also called LIM 04; LIM04
Does B8 bind (MTA1s)?
Result: binds
